# According to paper PMC11487180:
# Tests used:
# [1] = target: MBP-LRRK2-Roc-COR (wild type) (human) (UniProt Q5S007); assay: MST; NT-647-NHS labelled MBP-LRRK2-Roc-COR at 100 nM; unlabelled GST, GST-CRIB-PAK5 or GST-CRIB-PAK6 titrated; guanine nucleotides at 0.5 mM; Monolith NT.115, IR laser power 80%; analysed by PALMIST
# PAK6 (Homo sapiens) = PAK6 (Homo sapiens) (UniProt Q9NQU5); conditions: cited from earlier work
# [2] = target: 3xFlag tagged PAK6, full-length, purified from HEK293 cells (human) (UniProt Q9NQU5); assay: MST; NT-647-NHS labelled PAK6 full-length at 100 nM; unlabelled MBP-LRRK2-Roc-COR titrated (R1441C 3.4 nM to 110 µM, Y1699C 3.6 nM to 118 µM); guanine nucleotides at 0.5 mM; Monolith NT.115, IR laser power 80%; analysed by PALMIST
# Sequence of 3xFlag tagged PAK6, full-length, purified from HEK293 cells (human) (Q9NQU5 whole entry): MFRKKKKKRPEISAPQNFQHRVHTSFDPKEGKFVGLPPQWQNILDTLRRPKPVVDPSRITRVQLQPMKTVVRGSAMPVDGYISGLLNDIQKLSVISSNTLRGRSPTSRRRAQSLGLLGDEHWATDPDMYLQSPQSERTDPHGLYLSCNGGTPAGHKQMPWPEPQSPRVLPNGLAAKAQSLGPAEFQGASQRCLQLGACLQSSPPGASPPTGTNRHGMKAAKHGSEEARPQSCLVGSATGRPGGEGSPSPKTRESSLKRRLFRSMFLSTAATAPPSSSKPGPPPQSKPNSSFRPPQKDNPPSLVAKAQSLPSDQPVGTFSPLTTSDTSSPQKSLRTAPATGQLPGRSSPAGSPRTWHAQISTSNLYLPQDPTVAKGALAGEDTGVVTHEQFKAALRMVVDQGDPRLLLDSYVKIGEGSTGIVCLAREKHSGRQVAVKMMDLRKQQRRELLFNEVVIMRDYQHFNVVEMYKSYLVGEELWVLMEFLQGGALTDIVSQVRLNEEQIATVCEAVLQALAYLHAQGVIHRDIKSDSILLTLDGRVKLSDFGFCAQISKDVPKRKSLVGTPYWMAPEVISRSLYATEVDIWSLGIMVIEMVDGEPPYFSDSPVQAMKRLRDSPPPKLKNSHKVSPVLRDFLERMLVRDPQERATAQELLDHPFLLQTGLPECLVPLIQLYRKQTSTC
# Sequence of MBP-LRRK2-Roc-COR (wild type) (human) (Q5S007 whole entry): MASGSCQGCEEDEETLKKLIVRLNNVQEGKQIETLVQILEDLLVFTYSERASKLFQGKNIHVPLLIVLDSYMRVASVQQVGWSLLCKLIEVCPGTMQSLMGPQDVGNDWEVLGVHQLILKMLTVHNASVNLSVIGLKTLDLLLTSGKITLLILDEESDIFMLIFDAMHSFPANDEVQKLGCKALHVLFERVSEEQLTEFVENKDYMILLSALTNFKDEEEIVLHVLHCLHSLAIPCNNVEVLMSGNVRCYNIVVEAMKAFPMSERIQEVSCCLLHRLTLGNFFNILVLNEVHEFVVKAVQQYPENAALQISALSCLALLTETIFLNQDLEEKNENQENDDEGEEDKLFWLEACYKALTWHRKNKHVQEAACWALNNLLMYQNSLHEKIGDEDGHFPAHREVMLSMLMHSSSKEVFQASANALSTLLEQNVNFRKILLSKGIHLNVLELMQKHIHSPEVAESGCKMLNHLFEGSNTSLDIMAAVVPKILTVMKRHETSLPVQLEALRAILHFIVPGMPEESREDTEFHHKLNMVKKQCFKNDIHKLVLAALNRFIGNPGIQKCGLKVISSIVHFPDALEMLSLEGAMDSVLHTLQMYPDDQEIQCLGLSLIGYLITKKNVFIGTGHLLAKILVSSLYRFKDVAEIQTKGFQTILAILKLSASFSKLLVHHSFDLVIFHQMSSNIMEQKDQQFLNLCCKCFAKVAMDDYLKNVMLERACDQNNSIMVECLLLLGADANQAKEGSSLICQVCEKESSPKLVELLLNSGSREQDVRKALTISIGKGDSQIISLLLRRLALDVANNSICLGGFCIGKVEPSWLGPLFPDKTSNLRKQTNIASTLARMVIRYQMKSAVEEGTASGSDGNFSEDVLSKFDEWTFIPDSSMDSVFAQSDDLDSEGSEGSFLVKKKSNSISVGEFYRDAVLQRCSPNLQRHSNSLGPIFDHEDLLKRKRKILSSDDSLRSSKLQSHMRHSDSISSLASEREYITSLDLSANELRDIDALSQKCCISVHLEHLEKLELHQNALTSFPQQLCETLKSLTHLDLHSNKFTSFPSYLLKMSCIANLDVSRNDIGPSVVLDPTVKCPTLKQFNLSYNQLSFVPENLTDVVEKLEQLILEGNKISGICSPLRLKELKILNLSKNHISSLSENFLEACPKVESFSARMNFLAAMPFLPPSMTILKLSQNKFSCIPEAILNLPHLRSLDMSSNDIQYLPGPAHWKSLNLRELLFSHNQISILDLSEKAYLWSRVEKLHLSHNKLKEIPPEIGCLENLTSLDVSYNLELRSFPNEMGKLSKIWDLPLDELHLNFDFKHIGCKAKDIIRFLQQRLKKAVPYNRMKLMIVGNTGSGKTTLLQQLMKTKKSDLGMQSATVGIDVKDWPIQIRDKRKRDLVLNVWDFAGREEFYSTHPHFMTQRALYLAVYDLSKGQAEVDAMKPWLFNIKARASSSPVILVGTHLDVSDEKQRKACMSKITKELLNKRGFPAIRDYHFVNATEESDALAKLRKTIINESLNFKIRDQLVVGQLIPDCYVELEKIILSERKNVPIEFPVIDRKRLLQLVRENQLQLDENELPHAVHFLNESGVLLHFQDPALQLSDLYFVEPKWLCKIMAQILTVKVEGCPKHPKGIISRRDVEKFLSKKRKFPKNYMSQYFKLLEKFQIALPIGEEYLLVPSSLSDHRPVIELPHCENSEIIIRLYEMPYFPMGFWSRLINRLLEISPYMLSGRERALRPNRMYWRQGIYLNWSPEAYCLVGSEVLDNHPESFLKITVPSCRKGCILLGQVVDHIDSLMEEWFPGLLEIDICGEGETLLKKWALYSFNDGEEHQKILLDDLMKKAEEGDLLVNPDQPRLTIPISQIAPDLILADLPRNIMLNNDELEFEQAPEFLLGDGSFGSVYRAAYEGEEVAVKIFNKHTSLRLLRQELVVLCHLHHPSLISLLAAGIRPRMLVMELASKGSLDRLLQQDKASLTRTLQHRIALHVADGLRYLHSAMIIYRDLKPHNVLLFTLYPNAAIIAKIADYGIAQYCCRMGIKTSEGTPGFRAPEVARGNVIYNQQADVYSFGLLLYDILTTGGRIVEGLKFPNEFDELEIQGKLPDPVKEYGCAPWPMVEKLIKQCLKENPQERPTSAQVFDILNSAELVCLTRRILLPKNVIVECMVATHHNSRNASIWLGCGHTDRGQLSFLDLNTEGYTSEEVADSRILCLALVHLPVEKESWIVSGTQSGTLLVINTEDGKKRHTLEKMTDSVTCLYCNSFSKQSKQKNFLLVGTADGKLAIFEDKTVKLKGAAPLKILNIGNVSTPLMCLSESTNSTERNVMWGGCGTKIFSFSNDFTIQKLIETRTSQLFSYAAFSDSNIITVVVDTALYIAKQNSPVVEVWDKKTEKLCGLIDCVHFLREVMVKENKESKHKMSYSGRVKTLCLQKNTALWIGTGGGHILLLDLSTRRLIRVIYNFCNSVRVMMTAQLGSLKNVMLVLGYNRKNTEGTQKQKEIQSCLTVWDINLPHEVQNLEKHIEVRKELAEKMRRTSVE
# Sequence of GST-CRIB(PAK6) (Q9NQU5 11-45): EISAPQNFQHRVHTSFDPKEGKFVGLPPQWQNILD
# Sequence of GST-CRIB(PAK5) (Q9P286 10-44): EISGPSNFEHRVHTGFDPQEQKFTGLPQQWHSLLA
# Sequence of LRRK2 Roc-COR (Q5S007 1328-1840): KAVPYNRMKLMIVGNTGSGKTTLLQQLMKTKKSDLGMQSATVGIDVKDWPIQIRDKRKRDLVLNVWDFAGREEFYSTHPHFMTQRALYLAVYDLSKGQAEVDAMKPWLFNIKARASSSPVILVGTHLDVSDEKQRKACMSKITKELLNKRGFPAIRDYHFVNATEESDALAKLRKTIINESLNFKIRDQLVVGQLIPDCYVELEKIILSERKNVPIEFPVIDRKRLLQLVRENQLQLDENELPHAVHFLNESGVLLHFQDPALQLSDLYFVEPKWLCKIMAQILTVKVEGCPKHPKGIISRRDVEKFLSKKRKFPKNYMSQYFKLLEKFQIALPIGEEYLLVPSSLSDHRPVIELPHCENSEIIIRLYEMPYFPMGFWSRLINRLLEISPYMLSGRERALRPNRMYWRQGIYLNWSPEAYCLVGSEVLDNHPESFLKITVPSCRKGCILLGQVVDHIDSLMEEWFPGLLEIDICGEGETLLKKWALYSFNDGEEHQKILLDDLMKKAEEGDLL
# Sequence of PAK6 (Homo sapiens) (Q9NQU5 whole entry): as the sequence (Q9NQU5 whole entry) above
Kd [1],Kd [2],Substance,further results
12 µM,,GST-CRIB(PAK6) (from UniProt Q9NQU5 11-45) (domain or fragment),
,51.8 µM,MBP-LRRK2-Roc-COR R1441C (from UniProt Q5S007 1-2527) (domain or fragment),
,38.2 µM,MBP-LRRK2-Roc-COR Y1699C (from UniProt Q5S007 1-2527) (domain or fragment),

# Continued, substance first:
Substance,Kd [1],Kd [2],further results
GST-CRIB(PAK5) (from UniProt Q9P286 10-44) (domain or fragment),112 µM,,
LRRK2 Roc-COR (from UniProt Q5S007),,,Kd (PAK6 (Homo sapiens)): 10 µM
